Blank lines part the entries; values can stand above or below the binder they belong to.
Assays:
[1] = molecular target: T1, human TIGIT expressed on CHO-S cells (CHO-hTIGIT) (human, UniProt Q495A1 22-244); test: flow cytometry on CHO-TIGIT cells
T1 construct: also called CHO-TIGIT cell line; TIGIT on the cell surface
T1 sequence: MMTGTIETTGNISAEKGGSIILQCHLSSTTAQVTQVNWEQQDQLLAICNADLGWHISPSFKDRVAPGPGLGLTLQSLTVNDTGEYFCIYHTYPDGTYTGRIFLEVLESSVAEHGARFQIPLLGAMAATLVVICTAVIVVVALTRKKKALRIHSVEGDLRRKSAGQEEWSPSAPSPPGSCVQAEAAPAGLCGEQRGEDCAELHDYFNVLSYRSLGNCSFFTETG
Protocol: In order to identify the binding ability of the three types of anti-TIGIT antibodies produced in Example 2 to TIGIT expressed on the cell surface, TIGIT-overexpressing CHO cell line (hereinafter referred to as CHO-TIGIT cell line) was treated with anti-TIGIT antibodies and then the anti-TIGIT antibodies bound to TIGIT on the cell surface were detected using a fluorescence flow cytometer.
Specifically, the CHO-TIGIT cell line was cultured in a 5% CO2 incubator at 37° C. for 48 to 72 hours using a chemical composition medium (CD FortiCHO Chemically Defined Medium+8 mM L-Glutamine+20 μg/mL Blasticidin+1% Anti-clumping agent). The cultured CHO-TIGIT cell line was harvested by centrifugation, diluted in FACS solution (PBS+5% FBS), and dispensed at a density of 1×10⁵ cells/well in a 96-well round bottom plate (Corning). Then, in order to completely remove the chemical composition medium remaining on the cell surface, the FACS solution was added, centrifuged at 2,000 rpm for 3 minutes and washed three times to remove the supernatant. The washed CHO-TIGIT cell line was re-suspended by addition of 100 μL of FACS solution. The anti-TIGIT antibody of each concentration, which was diluted to 2 times the final concentration using the FACS solution, was added at 100 μL to a 96-well round bottom plate in which the CHO-TIGIT cell line was dispensed, and incubated at 4° C. for 1 hour. Then, in order to remove the anti-TIGIT antibody remaining in the supernatant, without binding to the TIGIT on the cell surface, the FACS solution was added to each well, centrifuged at 2,000 rpm for 3 minutes, and washed three times to remove the supernatant. Then, in order to detect anti-TIGIT antibody bound to TIGIT on the cell surface, a goat anti-human IgG (H+L) cross-adsorbed secondary antibody (Invitrogen) was diluted to 10 μg/mL using a FACS solution, and 100 μL of the diluted antibody was incubated at 4° C. for 1 hour. After washing three times, each sample was transferred to a 12×75 mm tube (BD Biosciences) and analyzed using a fluorescence flow cytometer.

[2] = molecular target: T2, human TIGIT-Fc (rhTIGIT-Fc, R&D Systems) (human, UniProt Q495A1 22-141); test: SPR (BIAcore T200), antibody immobilised on CM5 chip, TIGIT-Fc flowed
T2 construct: Bought protein; also called human TIGIT (rhTIGIT-Fc); not shown: Fc part of the bought fusion protein
T2 sequence: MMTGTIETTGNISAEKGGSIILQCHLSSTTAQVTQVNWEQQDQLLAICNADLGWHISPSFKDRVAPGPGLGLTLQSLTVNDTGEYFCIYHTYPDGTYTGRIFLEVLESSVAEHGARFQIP
Description: (§1) In order to measure binding abilities of the three types of anti-TIGIT antibodies produced in Example 2 to human TIGIT (rhTIGIT-Fc) and mouse TIGIT (rmTIGIT-Fc), surface plasmon resonance (SPR) using a BIAcore T200 (GE Healthcare) was used. The SPR method is based on the principle that the refractive index of light passing through a sensor chip changes according to the state of a substance coated on the sensor chip. When an antigen or antibody was made to flow into the chip coated with the antigen or antibody, the refractive index is changed due to binding therebetween and the affinity (KD) value is calculated from the measured value.
(§2) An anti-TIGIT antibody was immobilized on a Series S CM5 sensor chip (GE Healthcare) to a level of 500 RU using a 10 mM acetate solution (pH 4.0) and an amine coupling kit (GE Healthcare). […] The association of the TIGIT-Fc proteins was measured at a rate of 30 μL/min for 600 seconds, the dissociation was measured for 2,000 seconds, and the regeneration was carried out in a 10 mM glycine solution (pH 1.5) at a rate of 100 μL/min for 25 seconds.

[3] = molecular target: T3, mouse TIGIT-Fc (rmTIGIT-Fc, R&D Systems) (mouse, UniProt P86176 29-148, limits assumed); test: as above
T3 construct: Bought protein; also called mouse TIGIT (rmTIGIT-Fc); not shown: Fc part of the bought fusion protein
T3 sequence (looked up): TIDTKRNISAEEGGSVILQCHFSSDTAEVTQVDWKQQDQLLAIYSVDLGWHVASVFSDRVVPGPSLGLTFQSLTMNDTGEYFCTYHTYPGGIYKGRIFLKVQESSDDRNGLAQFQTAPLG
Description: as §1, §2

[4] = molecular target: T4, TIGIT expressed on cells (TIGIT-expressing effector cell line of the Promega kit); TIGIT-overexpressing NK92 … (UniProt Q495A1 22-244, limits assumed); test: cell-based or functional assay
T4 sequence (looked up): T1 sequence

EC50 [1]: 0.0165 µg/mL | Kd [2]: 1.19 nM | koff [2]: 0.000193 s⁻¹ | kon [2]: 162000 M⁻¹ s⁻¹ | Kd [3]: 0.182 nM | koff [3]: 8.91e-05 s⁻¹ | kon [3]: 490000 M⁻¹ s⁻¹
B1: 10A7 antibody (antibody, V domains shown)
VH: EVQLVESGGGLTQPGKSLKLSCEASGFTFSSFTMHWVRQSPGKGLEWVAFIRSGSGIVFYADAVRGRFTISRDNAKNLLFLQMNDLKSEDTAMYYCARRPLGHNTFDSWGQGTLVTVSS
VL: DIVMTQSPSSLAVSPGEKVTMTCKSSQSLYYSGVKENLLAWYQQKPGQSPKLLIYYASIRFTGVPDRFTGSGSGTDYTLTITSVQAEDMGQYFCQQGINNPLTFGDGTKLEIKR

binding inhibition (EC50), TIGIT/CD155 blockade assay, luminescence fold response [4]: 0.0239 µM | EC50 [1]: 0.0164 µg/mL | Kd [2]: 0.533 nM | koff [2]: 3.76e-05 s⁻¹ | kon [2]: 70500 M⁻¹ s⁻¹ | Kd [3]: 0.245 nM | koff [3]: 2.93e-05 s⁻¹ | kon [3]: 120000 M⁻¹ s⁻¹
B2: F04-10-IgG1 (antibody, V domains shown)
VH: EVQLLESGGGLVQPGGSLRLSCAASGFTFSSYYMSWVRQAPGKGLEWVSSIGSGSPSSTYYADSVKGRFTISRDNSKNTLYLQMNSLRAEDTAVYYCARSSYSGGNGYYYYAYAFDYWGQGTLVTVSS
VL: EIVLTQSPGTLSLSPGERATLSCRASQSVSSSYLAWYQQKPGQAPRLLIYGASSRATGIPDRFSGSGSGTDFTLTISRLEPEDFAVYYCQQGYHRYATFGQGTKVEIK
notes: also called antibody based on the F04-10 clones

binding inhibition (EC50), TIGIT/CD155 blockade assay, luminescence fold response [4]: 0.581 µM | EC50 [1]: 0.069 µg/mL | Kd [2]: 1.31 nM | koff [2]: 4.41e-05 s⁻¹ | kon [2]: 33700 M⁻¹ s⁻¹ | Kd [3]: 3.2 nM | koff [3]: 0.000201 s⁻¹ | kon [3]: 62800 M⁻¹ s⁻¹
B3: S64-39-IgG1 (antibody, V domains shown)
VH: EVQLLESGGGLVQPGGSLRLSCAASGFTFSNYAMSWVRQAPGKGLEWVSGISPSGSSIYYADSVQGRFTISRDNSKNTLYLQMNSLRAEDTAVYYCAKAIRTCSLSHCYYYYGMDVWGQGTLVTVSS
VL: QSVLTQPPSASGTPGQRVTISCSSSSSNIGSNAVNWYQQLPGTAPKLLIYYDNQRPSGVPDRFSGSKSGTSASLAISGLRSEDEADYYCATWDYSLSGYVFGGGTKLTVL
notes: also called 564-39-IgG1 [sic]; antibody based on the S64-39 clones

binding inhibition (EC50), TIGIT/CD155 blockade assay, luminescence fold response [4]: 1.08 µM | EC50 [1]: 0.0808 µg/mL | Kd [2]: 1.15 nM | koff [2]: 3.23e-05 s⁻¹ | kon [2]: 28200 M⁻¹ s⁻¹ | Kd [3]: 3.12 nM | koff [3]: 0.000194 s⁻¹ | kon [3]: 62200 M⁻¹ s⁻¹
B4: S64-39-IgG4 (antibody, V domains shown)
VH: B3 VH
VL: B3 VL
notes: also called 564-39-IgG4 [sic]
